Results: the supplement of paper PMC11246515
± gives the standard deviation of the averaged measurements.

Assay: total protein half-life in vivo (active degradation + dilution); higher = more stable protein
[1] = E. coli NCM3722 delta-clpP delta-lon delta-hslV, growth: N-lim chemostat, doubling time 6 h
[2] = E. coli NCM3722 delta-clpP, growth: N-lim chemostat, doubling time 6 h
[3] = E. coli NCM3722 delta-smpB, growth: N-lim chemostat, doubling time 6 h
[4] = wild type E. coli NCM3722, growth: C-lim chemostat, doubling time 3 h
[5] = wild type E. coli NCM3722, growth: C-lim chemostat, doubling time 12 h
[6] = wild type E. coli NCM3722, growth: N-lim chemostat, doubling time 6 h
[7] = wild type E. coli NCM3722, growth: N-lim chemostat, doubling time 12 h
[8] = wild type E. coli NCM3722, growth: P-lim chemostat, doubling time 6 h
[9] = wild type E. coli NCM3722, growth: P-lim chemostat, doubling time 12 h
[10] = E. coli NCM3722 delta-hslV, growth: N-lim chemostat, doubling time 6 h
[11] = E. coli NCM3722 delta-lon, growth: N-lim chemostat, doubling time 6 h
[12] = wild type E. coli NCM3722, growth: C-lim chemostat, doubling time 6 h

Sequence	total protein half-life in vivo [1]	total protein half-life in vivo [2]	total protein half-life in vivo [3]	total protein half-life in vivo [4]	total protein half-life in vivo [5]	total protein half-life in vivo [6]	total protein half-life in vivo [7]	total protein half-life in vivo [8]	total protein half-life in vivo [9]	total protein half-life in vivo [10]	total protein half-life in vivo [11]	total protein half-life in vivo [12]
MNTLLLLAALSSQITFNTTQQGDVYTIIPEVTLTQSCLCRVQILSLREGSSGQSQTKQEKTLSLPANQPIALTKLSLNISPDDRVKIVVTVSDGQSLHLSQQWPPSSEKS	4.26 ± 0.3 h	3.33 h	3.31 ± 0.35 h	2.3 h	5.97 ± 1.4 h	4.1 h	6.87 ± 0.16 h	4.19 h	7.71 ± 0.17 h			
MNTLPEHSCDVLIIGSGAAGLSLALRLADQHQVIVLSKGPVTEGSTFYAQGGIAAVFDETDSIDSHVEDTLIAGAGICDRHAVEFVASNARSCVQWLIDQGVLFDTHIQPNGEESYHLTREGGHSHRRILHAADATGREVETTLVSKALNHPNIRVLERSNAVDLIVSDKIGLPGTRRVVGAWVWNRNKETVETCHAKAVVLATGGASKVYQYTTNPDISSGDGIAMAWRAGCRVANLEFNQFHPTALYHPQARNFLLTEALRGEGAYLKRPDGTRFMPDFDERGELAPRDIVARAIDHEMKRLGADCMFLDISHKPADFIRQHFPMIYEKLLGLGIDLTQEPVPIVPAAHYTCGGVMVDDHGRTDVEGLYAIGEVSYTGLHGANRMASNSLLECLVYGWSAAEDITRRMPYAHDISTLPPWDESRVENPDERVVIQHNWHELRLFMWDYVGIVRTTKRLERALRRITMLQQEIDEYYAHFRVSNNLLELRNLVQVAELIVRCAMMRKESRGLHFTLDYPELLTHSGPSILSPGNHYINR	4 ± 0.14 h	2.44 ± 0.11 h	2.39 ± 0.22 h	2.68 ± 0.063 h	8.41 ± 0.56 h	2.58 ± 0.22 h	3.51 ± 0.061 h	4.69 ± 0.27 h	8.21 ± 0.71 h	2.28 ± 0.26 h	4.14 ± 1.7 h	4.41 ± 0.59 h
MNTLTFLLSTVIELYTMVLLLRIWMQWAHCDFYNPFSQFVVKVTQPIIGPLRRVIPAMGPIDSASLLVAYILSFIKAIVLFKVVTFLPIIWIAGLLILLKTIGLLIFWVLLVMAIMSWVSQGRSPIEYVLIQLADPLLRPIRRLLPAMGGIDFSPMILVLLLYVINMGVAEVLQATGNMLLPGLWMAL	6.46 h			2.92 h	10.6 h			5.07 h	8.69 h	5.6 h	6.12 h	
MNTTLFRWPVRVYYEDTDAGGVVYHASYVAFYERARTEMLRHHHFSQQALMAERVAFVVRKMTVEYYAPARLDDMLEIQTEITSMRGTSLVFTQRIVNAENTLLNEAEVLVVCVDPLKMKPRALPKSIVAEFKQ [P0A8Z3]	5.87 ± 0.51 h	6.54 ± 0.91 h	5.7 ± 0.13 h		11.1 ± 2.1 h	5.28 ± 0.094 h	12.3 ± 2.7 h	5.68 ± 0.45 h	12.63 ± 0.092 h	6.41 ± 0.61 h	6.27 ± 0.26 h	5.99 ± 0.073 h
MNTTTPMGMLQQPRPFFMIFFVELWERFGYYGVQGVLAVFFVKQLGFSQEQAFVTFGAFAALVYGLISIGGYVGDHLLGTKRTIVLGALVLAIGYFMTGMSLLKPDLIFIALGTIAVGNGLFKANPASLLSKCYPPKDPRLDGAFTLFYMSINIGSLIALSLAPVIADRFGYSVTYNLCGAGLIIALLVYIACRGMVKDIGSEPDFRPMSFSKLLYVLLGSVVMIFVCAWLMHNVEVANLVLIVLSIVVTIIFFRQAFKLDKTGRNKMFVAFVLMLEAVVFYILYAQMPTSLNFFAINNVHHEILGFSINPVSFQALNPFWVVLASPILAGIYTHLGNKGKDLSMPMKFTLGMFMCSLGFLTAAAAGMWFADAQGLTSPWFIVLVYLFQSLGELFISALGLAMIAALVPQHLMGFILGMWFLTQAAAFLLGGYVATFTAVPDNITDPLETLPVYTNVFGKIGLVTLGVAVVMLLMVPWLKRMIATPESH	6.66 ± 0.32 h	6.8 ± 0.1 h	> 8 h	> 4 h			6.12 h	6.47 h	11.1 ± 1.4 h		5.78 ± 0.79 h	
MNTVCTHCQAINRIPDDRIEDAAKCGRCGHDLFDGEVINATGETLDKLLKDDLPVVIDFWAPWCGPCRNFAPIFEDVAQERSGKVRFVKVNTEAERELSSRFGIRSIPTIMIFKNGQVVDMLNGAVPKAPFDSWLNESL [P0AGG4]	5.02 ± 0.31 h	2.89 ± 0.54 h	2.48 ± 1.3 h	1.6 ± 0.2 h	5.03 ± 1.5 h	2.26 ± 0.083 h	3.44 ± 0.91 h	2.24 ± 0.53 h	4.54 ± 0.14 h	2.37 ± 0.6 h	5.32 ± 0.43 h	3.09 ± 0.67 h
MNTVRSEKDSMGAIDVPADKLWGAQTQRSLEHFRISTEKMPTSLIHALALTKRAAAKVNEDLGLLSEEKASAIRQAADEVLAGQHDDEFPLAIWQTGSGTQSNMNMNEVLANRASELLGGVRGMERKVHPNDDVNKSQSSNDVFPTAMHVAALLALRKQLIPQLKTLTQTLNEKSRAFADIVKIGRTHLQDATPLTLGQEISGWVAMLEHNLKHIEYSLPHVAELALGGTAVGTGLNTHPEYARRVADELAVITCAPFVTAPNKFEALATCDALVQAHGALKGLAASLMKIANDVRWLASGPRCGIGEISIPENEPGSSIMPGKVNPTQCEALTMLCCQVMGNDVAINMGGASGNFELNVFRPMVIHNFLQSVRLLADGMESFNKHCAVGIEPNRERINQLLNESLMLVTALNTHIGYDKAAEIAKKAHKEGLTLKAAALALGYLSEAEFDSWVRPEQMVGSMKAGR	4.65 ± 0.1 h	4.64 ± 0.49 h	4.11 ± 0.091 h	3.18 ± 0.23 h	9.94 ± 0.14 h	4.59 ± 0.14 h	7.19 ± 0.16 h	5.82 ± 0.21 h	12.6 ± 0.33 h	4.42 ± 0.081 h	4.69 ± 0.13 h	5.9 ± 0.12 h
MNVFNPAQFRAQFPALQDAGVYLDSAATALKPEAVVEATQQFYSLSAGNVHRSQFAEAQRLTARYEAAREKVAQLLNAPDDKTIVWTRGTTESINMVAQCYARPRLQPGDEIIVSVAEHHANLVPWLMVAQQTGAKVVKLPLNAQRLPDVDLLPELITPRSRILALGQMSNVTGGCPDLARAITFAHSAGMVVMVDGAQGAVHFPADVQQLDIDFYAFSGHKLYGPTGIGVLYGKSELLEAMSPWLGGGKMVHEVSFDGFTTQSAPWKLEAGTPNVAGVIGLSAALEWLADYDINQAESWSRSLATLAEDALAKRPGFRSFRCQDSSLLAFDFAGVHHSDMVTLLAEYGIALRAGQHCAQPLLAELGVTGTLRASFAPYNTKSDVDALVNAVDRALELLVD	4.06 ± 0.23 h	3.13 ± 0.13 h	3.52 ± 0.088 h	2.97 ± 0.082 h	10.8 ± 2.4 h	4.11 ± 0.22 h	6.8 ± 0.74 h	5.86 ± 0.26 h	13.3 ± 3.4 h	3.71 ± 0.079 h	4.38 ± 0.57 h	5.59 ± 0.13 h
MNVFSQTQRYKALFWLSLFHLLVITSSNYLVQLPVSILGFHTTWGAFSFPFIFLATDLTVRIFGAPLARRIIFAVMIPALLISYVISSLFYMGSWQGFGALAHFNLFVARIATASFMAYALGQILDVHVFNRLRQSRRWWLAPTASTLFGNVSDTLAFFFIAFWRSPDAFMAEHWMEIALVDYCFKVLISIVFFLPMYGVLLNMLLKRLADKSEINALQAS				2.3 h								
MNVIRTEIEDVLILEPRVFGDDRGFFYESFNQSAFEHILGYPVSFVQDNHSRSSKNVLRGLHFQRGEYAQDKLVRCTHGAVFDVAVDIRPNSVSFGKWVGVLLSADNKQQLWIPKGFAHGFLVLSDIAEFQYKTTNYYHPESDCGICWNDERIAIDWPQTSGLILSPKDERLFTLDELIRLKLIA	6.28 h						3.7 h				3.33 ± 0.14 h	
MNVLRSGIVTMLLLAAFSVQAACTWPAWEQFKKDYISQEGRVIDPSDARKITTSEGQSYGMFSALAANDRAAFDNILDWTQNNLAQGSLKERLPAWLWGKKENSKWEVLDSNSASDGDVWMAWSLLEAGRLWKEQRYTDIGSALLKRIAREEVVTVPGLGSMLLPGKVGFAEDNSWRFNPSYLPPTLAQYFTRFGAPWTTLRETNQRLLLETAPKGFSPDWVRYEKDKGWQLKAEKTLISSYDAIRVYMWVGMMPDSDPQKARMLNRFKPMATFTEKNGYPPEKVDVATGKAQGKGPVGFSAAMLPFLQNRDAQAVQRQRVADNFPGSDAYYNYVLTLFGQGWDQHRFRFSTKGELLPDWGQECANSH	5.88 ± 0.14 h	6.89 ± 0.16 h	5.684 ± 0.013 h	3.19 ± 0.12 h		6.48 ± 1.2 h	14 ± 0.56 h	5.86 ± 0.12 h	12.7 ± 0.61 h	6.78 ± 0.68 h	6.5 ± 0.64 h	6.41 ± 0.42 h
MNYEIKQEEKRTVAGFHLVGPWEQTVKKGFEQLMMWVDSKNIVPKEWVAVYYDNPDETPAEKLRCDTVVTVPGYFTLPENSEGVILTEITGGQYAVAVARVVGDDFAKPWYQFFNSLLQDSAYEMLPKPCFEVYLNNGAEDGYWDIEMYVAVQPKHH	4.8 ± 0.93 h	2.75 h	4.26 ± 1.8 h	2.22 ± 0.21 h	5.57 ± 0.35 h	3.16 h	4.89 ± 0.49 h	2.6 h	6.49 ± 0.56 h	3.39 ± 0.23 h		3.9 ± 0.048 h
MNYHQYYPVDIVNGPGTRCTLFVSGCVHECPGCYNKSTWRVNSGQPFTKAMEDQIINDLNDTRIKRQGISLSGGDPLHPQNVPDILKLVQRIRAECPGKDIWVWTGYKLDELNAAQMQVVDLINVLVDGKFVQDLKDPSLIWRGSSNQVVHHLR [P0A9N8]		1.08 h			2.03 h							
